Measured values from US20260069707A1, “COMBINATION THERAPY WITH ANTIBODY-DRUG CONJUGATES AND HYALURONIDASES” (HALOZYME, INC., priority 2024, published 2026).

Experiment: Histological analysis (H&E) of post-injection tissue samples
Type: in vivo, Yucatan miniature pig (Sus scrofa domestica)
From the text: Following the assessment after day three, the animal was humanely euthanized using an injectable euthanasia drug provided by the vivarium staff. Following euthanasia full thickness punch biopsies of the injection site were taken (12 mm) and placed in 10% formalin. After obtaining the punch biopsies the animal carcass was removed and disposed of as biohazardous waste. Sections were made from tissue samples and assessed for histopathology using hematoxylin and eosin staining methods. Analyses were performed on each injection site (2 biopsies) and one untreated site. Three tissue depths were examined from each tissue section following level sectioning technique, representing the beginning, middle and end of each section.
After fixation the samples were processed and embedded into paraffin to make formalin fixed paraffin embedded (FFPE) tissues sections Each tissue section was evaluated at three different tissue depths (1-2-3; low-medium-high). In addition to tissue samples from the injection site, a sample was taken from naïve untreated tissue for comparison.
Each injection was one mL and was delivered using a pre-filled 1-cc syringe. After the last timepoint, the animal was humanely euthanized. After euthanasia, punch biopsies of each injection site were obtained and preserved in 10% formalin for histological analyses.
After fixation, the samples were processed and embedded into paraffin to make formalin fixed paraffin embedded (FFPE) tissues sections Each tissue section was evaluated at three different tissue depths (1-2-3; low-medium-high). In addition to tissue samples from the injection site, a sample was taken from two naïve untreated tissue sites for comparison. Tissue sections were prepared and stained with hematoxylin and eosin for pathohistological evaluation.
Method: After 72h, animals were euthanized and full-thickness punch biopsies taken (12 mm). FFPE sections were prepared from each injection site. Samples were evaluated at three different tissue depths. A sample of naïve skin was also included for comparison. Results: 1/3 tissue samples from ADC alone had multiple focal infiltrates in SC (all levels).

For Sacituzumab govitecan [Trodelvy], the Local skin tolerability (Example 3: 1 mL SC, exposure times 4 hours or less) was “demonstrated local skin tolerability”, the “Tissue samples/injections with multiple focal (immune cell) infiltrates in SC” value (pig, in vivo) was 1/3 and the “Focal instances of [immune] cell infiltrates in the SC space” value (pig, in vivo, sc) was 2. For the same substance, the Necrosis (pig, in vivo, sc) was 0 and the “Pathohistological findings (H&E)” value (pig, in vivo, sc) was “no findings”.
